Measured values from paper PMC9482650, “Quantitative fragmentomics allow affinity mapping of interactomes” (Nature Communications, 2022).

T1: PDZD7_3, Q9H5P4
T1 sequence (Q9H5P4 857-944, limits assumed, looked up): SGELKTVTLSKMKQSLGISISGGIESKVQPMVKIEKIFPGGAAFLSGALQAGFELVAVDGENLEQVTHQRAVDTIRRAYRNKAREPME

T2: SHANK1, Q9Y566
T2 sequence (Q9Y566 658-767, limits assumed, looked up): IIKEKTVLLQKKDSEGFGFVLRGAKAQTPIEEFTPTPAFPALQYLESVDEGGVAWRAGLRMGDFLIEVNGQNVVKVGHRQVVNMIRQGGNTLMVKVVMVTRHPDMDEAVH

T3: CARD11, Q9BXL7
T3 sequence (Q9BXL7 662-765, limits assumed, looked up): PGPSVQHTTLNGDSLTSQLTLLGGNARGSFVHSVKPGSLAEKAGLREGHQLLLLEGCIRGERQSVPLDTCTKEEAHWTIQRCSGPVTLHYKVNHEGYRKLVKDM

T4: APBA2_2, Q99767
T4 sequence (Q99767 654-744, limits assumed, looked up): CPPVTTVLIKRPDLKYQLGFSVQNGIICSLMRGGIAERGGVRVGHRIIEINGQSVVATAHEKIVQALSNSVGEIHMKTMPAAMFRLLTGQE

T5: MPDZ_12, O75970
T5 sequence (O75970 1857-1958, limits assumed, looked up): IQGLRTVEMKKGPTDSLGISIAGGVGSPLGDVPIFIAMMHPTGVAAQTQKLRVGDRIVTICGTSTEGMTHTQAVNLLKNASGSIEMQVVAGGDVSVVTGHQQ

T6: LNX2_2, Q8N448
T6 sequence (Q8N448 334-432, limits assumed, looked up): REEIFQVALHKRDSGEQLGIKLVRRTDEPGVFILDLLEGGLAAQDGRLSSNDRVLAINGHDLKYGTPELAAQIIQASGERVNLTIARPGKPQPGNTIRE

T7: MPP2, Q14168
T7 sequence (Q14168 180-250, limits assumed, looked up): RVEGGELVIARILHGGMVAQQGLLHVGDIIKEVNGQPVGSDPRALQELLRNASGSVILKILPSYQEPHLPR

T8: DLG3_2, Q92796
T8 sequence (Q92796 221-321, limits assumed, looked up): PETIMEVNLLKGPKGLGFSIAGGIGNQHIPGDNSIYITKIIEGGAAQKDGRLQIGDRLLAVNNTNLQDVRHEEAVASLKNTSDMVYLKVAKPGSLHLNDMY

T9: TJP3_3, O95049
T9 sequence (O95049 375-456, limits assumed, looked up): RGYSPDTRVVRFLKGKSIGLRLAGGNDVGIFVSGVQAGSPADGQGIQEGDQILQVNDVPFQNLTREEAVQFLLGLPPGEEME

T10: DLG3_3, Q92796
T10 sequence (Q92796 374-475, limits assumed, looked up): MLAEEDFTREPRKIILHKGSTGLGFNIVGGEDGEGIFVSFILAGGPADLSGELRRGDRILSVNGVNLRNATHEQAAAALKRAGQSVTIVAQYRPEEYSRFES

T11: DFNB31_2, Q9P202
T11 sequence (Q9P202 274-371, limits assumed, looked up): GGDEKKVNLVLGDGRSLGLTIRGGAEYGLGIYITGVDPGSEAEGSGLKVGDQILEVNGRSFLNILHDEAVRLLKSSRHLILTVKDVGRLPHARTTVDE


What was measured:
Assay in all cases: holdup assay
Design in all cases: key: below the threshold = too weak to quantify, mostly under pKd 3.1 to 4
Conditions in all cases: plain residues with an end cap or a label only (N-terminal biotin on a linker: ado-ado)
Inadl_8, Q8NI35 = molecular target: Inadl_8, Q8NI35
GRIP2_4, Q9C0E4 = molecular target: GRIP2_4, Q9C0E4
PDZD7_3, Q9H5P4 = molecular target: T1, PDZD7_3, Q9H5P4
Inadl_1, Q8NI35 = molecular target: Inadl_1, Q8NI35
DLG4_1, P78352 = molecular target: DLG4_1, P78352
SHANK1, Q9Y566 = molecular target: T2, SHANK1, Q9Y566
FRMPD2_3, Q68DX3 = molecular target: FRMPD2_3, Q68DX3
LDB3, O75112 = molecular target: LDB3, O75112
CARD11, Q9BXL7 = molecular target: T3, CARD11, Q9BXL7
APBA2_2, Q99767 = molecular target: T4, APBA2_2, Q99767
MPDZ_12, O75970 = molecular target: T5, MPDZ_12, O75970
GRIP2_5, Q9C0E4 = molecular target: GRIP2_5, Q9C0E4
MAGI2_4, Q86UL8 = molecular target: MAGI2_4, Q86UL8
PTPN3, P26045 = molecular target: PTPN3, P26045
TJP1_3, Q07157 = molecular target: TJP1_3, Q07157
LIMK2, P53671 = molecular target: LIMK2, P53671
GRIP2_3, Q9C0E4 = molecular target: GRIP2_3, Q9C0E4
LNX2_2, Q8N448 = molecular target: T6, LNX2_2, Q8N448
IL16_3, Q14005 = molecular target: IL16_3, Q14005
MPP2, Q14168 = molecular target: T7, MPP2, Q14168
DLG3_2, Q92796 = molecular target: T8, DLG3_2, Q92796
TJP3_3, O95049 = molecular target: T9, TJP3_3, O95049
CASK, O14936 = molecular target: CASK, O14936
MAGI3_2, Q5TCQ9 = molecular target: MAGI3_2, Q5TCQ9
DLG3_3, Q92796 = molecular target: T10, DLG3_3, Q92796
GRIP2_6, Q9C0E4 = molecular target: GRIP2_6, Q9C0E4
DFNB31_2, Q9P202 = molecular target: T11, DFNB31_2, Q9P202
MAGI2_6, Q86UL8 = molecular target: MAGI2_6, Q86UL8
Chain of MAGI2_6, Q86UL8 (Q86UL8 1141-1229): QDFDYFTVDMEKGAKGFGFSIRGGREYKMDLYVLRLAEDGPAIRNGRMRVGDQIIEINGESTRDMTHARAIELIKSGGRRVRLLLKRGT

Chain of TJP1_3, Q07157 (Q07157 416-512): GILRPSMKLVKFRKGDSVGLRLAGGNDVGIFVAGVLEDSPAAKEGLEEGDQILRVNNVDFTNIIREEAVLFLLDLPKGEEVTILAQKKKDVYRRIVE
Chain of IL16_3, Q14005 (Q14005 1107-1207): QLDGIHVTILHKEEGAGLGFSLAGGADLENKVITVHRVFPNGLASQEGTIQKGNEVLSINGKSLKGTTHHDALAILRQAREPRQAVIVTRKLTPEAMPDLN
Chain of Inadl_1, Q8NI35 (Q8NI35 113-229): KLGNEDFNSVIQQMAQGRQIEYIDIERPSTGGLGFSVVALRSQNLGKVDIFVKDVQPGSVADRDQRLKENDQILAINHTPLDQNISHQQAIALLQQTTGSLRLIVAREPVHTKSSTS
Chain of CASK, O14936 (O14936 487-570): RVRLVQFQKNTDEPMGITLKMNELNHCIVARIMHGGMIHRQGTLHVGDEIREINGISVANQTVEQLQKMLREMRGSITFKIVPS
Chain of PTPN3, P26045 (P26045 505-587): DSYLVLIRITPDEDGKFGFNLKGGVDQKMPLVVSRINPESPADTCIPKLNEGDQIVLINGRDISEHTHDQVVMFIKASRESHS
Chain of LDB3, O75112 (O75112 1-94): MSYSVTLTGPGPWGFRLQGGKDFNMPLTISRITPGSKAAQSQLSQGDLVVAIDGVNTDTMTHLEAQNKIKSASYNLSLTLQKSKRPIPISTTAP
Chain of FRMPD2_3, Q68DX3 (Q68DX3 1073-1166): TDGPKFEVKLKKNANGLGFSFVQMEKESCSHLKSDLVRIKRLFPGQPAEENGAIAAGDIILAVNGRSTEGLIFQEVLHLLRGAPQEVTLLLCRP
Chain of MAGI2_4, Q86UL8 (Q86UL8 772-865): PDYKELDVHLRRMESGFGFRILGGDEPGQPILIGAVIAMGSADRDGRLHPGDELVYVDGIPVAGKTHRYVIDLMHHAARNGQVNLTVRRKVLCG
Chain of GRIP2_3, Q9C0E4 (Q9C0E4 238-339): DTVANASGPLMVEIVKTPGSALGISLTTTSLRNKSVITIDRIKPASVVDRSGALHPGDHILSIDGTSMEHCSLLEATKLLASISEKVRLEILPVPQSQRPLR
Chain of GRIP2_5, Q9C0E4 (Q9C0E4 544-642): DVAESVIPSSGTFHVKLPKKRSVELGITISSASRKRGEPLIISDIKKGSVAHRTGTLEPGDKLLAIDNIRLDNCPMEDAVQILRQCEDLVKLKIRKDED
Chain of MAGI3_2, Q5TCQ9 (Q5TCQ9 398-503): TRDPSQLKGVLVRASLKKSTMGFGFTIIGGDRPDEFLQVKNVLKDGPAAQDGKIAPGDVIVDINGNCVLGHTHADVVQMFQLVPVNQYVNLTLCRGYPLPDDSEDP
Chain of GRIP2_6, Q9C0E4 (Q9C0E4 648-740): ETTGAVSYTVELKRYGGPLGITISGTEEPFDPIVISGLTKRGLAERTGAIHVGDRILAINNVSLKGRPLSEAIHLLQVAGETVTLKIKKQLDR
Chain of DLG4_1, P78352 (P78352 62-152): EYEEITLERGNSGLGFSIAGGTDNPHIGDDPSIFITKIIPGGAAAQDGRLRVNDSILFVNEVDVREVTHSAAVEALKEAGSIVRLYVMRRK
Chain of Inadl_8, Q8NI35 (Q8NI35 1425-1530): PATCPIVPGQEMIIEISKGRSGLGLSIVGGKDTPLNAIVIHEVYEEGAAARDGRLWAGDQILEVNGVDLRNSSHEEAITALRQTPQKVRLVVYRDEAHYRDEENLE
Chain of GRIP2_4, Q9C0E4 (Q9C0E4 446-548): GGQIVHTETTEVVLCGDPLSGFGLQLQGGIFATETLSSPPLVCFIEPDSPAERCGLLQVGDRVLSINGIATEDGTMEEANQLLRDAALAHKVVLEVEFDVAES
Chain of LIMK2, P53671 (P53671 143-248): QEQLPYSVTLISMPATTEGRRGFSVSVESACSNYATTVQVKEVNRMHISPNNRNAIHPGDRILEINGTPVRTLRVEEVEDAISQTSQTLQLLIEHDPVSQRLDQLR

pKd (Inadl_8, Q8NI35) | pKd (GRIP2_4, Q9C0E4) | pKd (PDZD7_3, Q9H5P4) | pKd (Inadl_1, Q8NI35) | pKd (DLG4_1, P78352) | pKd (SHANK1, Q9Y566) | pKd (FRMPD2_3, Q68DX3) | pKd (LDB3, O75112) | pKd (CARD11, Q9BXL7) | pKd (APBA2_2, Q99767) | pKd (MPDZ_12, O75970) | pKd (GRIP2_5, Q9C0E4) | pKd (MAGI2_4, Q86UL8) | pKd (PTPN3, P26045) | pKd (TJP1_3, Q07157) | pKd (LIMK2, P53671) | pKd (GRIP2_3, Q9C0E4) | pKd (LNX2_2, Q8N448) | pKd (IL16_3, Q14005) | pKd (MPP2, Q14168) | Binder | other results
below the threshold | below the threshold | 3.78 | below the threshold | below the threshold | below the threshold | below the threshold | below the threshold | below the threshold | below the threshold | below the threshold | below the threshold | 3.54 | 4.55 | below the threshold | below the threshold | below the threshold | below the threshold | below the threshold | below the threshold | MLSKQSESAI [FLVCR1, Q9Y5Y0] | pKd (DLG3_2, Q92796): 3.68; pKd (TJP3_3, O95049): below the threshold; pKd (CASK, O14936): below the threshold; pKd (MAGI3_2, Q5TCQ9): 4.45; pKd (DLG3_3, Q92796): below the threshold; pKd (GRIP2_6, Q9C0E4): below the threshold; pKd (DFNB31_2, Q9P202): below the threshold; pKd (MAGI2_6, Q86UL8): below the threshold
4.06 | below the threshold | 4.7 | below the threshold | below the threshold | 3.89 | below the threshold | below the threshold | below the threshold | below the threshold | below the threshold | below the threshold | below the threshold | 3.71 | below the threshold | below the threshold | below the threshold | below the threshold | below the threshold | below the threshold | SAAKVLTSMC [GHRHR, Q02643] | pKd (DLG3_2, Q92796): 4.12; pKd (TJP3_3, O95049): below the threshold; pKd (CASK, O14936): below the threshold; pKd (MAGI3_2, Q5TCQ9): below the threshold; pKd (DLG3_3, Q92796): below the threshold; pKd (GRIP2_6, Q9C0E4): below the threshold; pKd (DFNB31_2, Q9P202): below the threshold; pKd (MAGI2_6, Q86UL8): below the threshold

Further lines, the binder ahead of its results:

Binder | pKd (Inadl_8, Q8NI35) | pKd (GRIP2_4, Q9C0E4) | pKd (PDZD7_3, Q9H5P4) | pKd (Inadl_1, Q8NI35) | pKd (DLG4_1, P78352) | pKd (SHANK1, Q9Y566) | pKd (FRMPD2_3, Q68DX3) | pKd (LDB3, O75112) | pKd (CARD11, Q9BXL7) | pKd (APBA2_2, Q99767) | pKd (MPDZ_12, O75970) | pKd (GRIP2_5, Q9C0E4) | pKd (MAGI2_4, Q86UL8) | pKd (PTPN3, P26045) | pKd (TJP1_3, Q07157) | pKd (LIMK2, P53671) | pKd (GRIP2_3, Q9C0E4) | pKd (LNX2_2, Q8N448) | pKd (IL16_3, Q14005) | pKd (MPP2, Q14168) | other results
QSPANIYYKV [EFNB1, P52799] | below the threshold | below the threshold | below the threshold | 3.82 | below the threshold | below the threshold | below the threshold | below the threshold | below the threshold | below the threshold | below the threshold | below the threshold | below the threshold | below the threshold | below the threshold | below the threshold | below the threshold | 4.25 | below the threshold | below the threshold | pKd (DLG3_2, Q92796): below the threshold; pKd (TJP3_3, O95049): below the threshold; pKd (CASK, O14936): below the threshold; pKd (MAGI3_2, Q5TCQ9): below the threshold; pKd (DLG3_3, Q92796): below the threshold; pKd (GRIP2_6, Q9C0E4): 4.4; pKd (DFNB31_2, Q9P202): below the threshold; pKd (MAGI2_6, Q86UL8): below the threshold
QSARLWETSI [ADAM22, Q9P0K1] | 3.81 | below the threshold | 5.16 | 3.84 | 3.92 | 3.72 | below the threshold | below the threshold | below the threshold | below the threshold | below the threshold | below the threshold | below the threshold | 4.83 | below the threshold | below the threshold | below the threshold | below the threshold | below the threshold | below the threshold | pKd (DLG3_2, Q92796): 4.32; pKd (TJP3_3, O95049): below the threshold; pKd (CASK, O14936): below the threshold; pKd (MAGI3_2, Q5TCQ9): 4.22; pKd (DLG3_3, Q92796): 4.29; pKd (GRIP2_6, Q9C0E4): 3.84; pKd (DFNB31_2, Q9P202): 3.57; pKd (MAGI2_6, Q86UL8): 4.22
